In patent US20140161798A1 (Merck Sharp & Dohme, published 2014):
Positions count from the first letter of the chain named.

Columns and labels:
[1] = biological target: mouse liver LDL receptor (C57BL/6j mice) (mouse) (UniProt P35951); experiment: cell-based or functional assay
[2] = biological target: Purified PCSK9 carrying a C-terminal FLAG tag (UniProt Q8NBP7); experiment: AlphaScreen PCSK9-FLAG/His-LDLR; non-specific control; log[antibody] ug/ml -1.9909
[3] = biological target: Purified PCSK9 carrying a C-terminal FLAG tag (UniProt Q8NBP7); experiment: as above; remark: listed apart in the source
[4] = biological target: Purified PCSK9 carrying a C-terminal FLAG tag (UniProt Q8NBP7); experiment: AlphaScreen PCSK9-FLAG/His-LDLR; non-specific control; log[antibody] ug/ml -0.08241
[5] = biological target: Purified PCSK9 carrying a C-terminal FLAG tag (UniProt Q8NBP7); experiment: AlphaScreen PCSK9-FLAG/His-LDLR; non-specific control; log[antibody] ug/ml -0.55953
[6] = biological target: Purified PCSK9 carrying a C-terminal FLAG tag (UniProt Q8NBP7); experiment: AlphaScreen PCSK9-FLAG/His-LDLR; non-specific control; log[antibody] ug/ml -1.03665
[7] = biological target: Purified PCSK9 carrying a C-terminal FLAG tag (UniProt Q8NBP7); experiment: AlphaScreen PCSK9-FLAG/His-LDLR; non-specific control; log[antibody] ug/ml -1.51377
[8] = biological target: Purified PCSK9 carrying a C-terminal FLAG tag (UniProt Q8NBP7); experiment: AlphaScreen PCSK9-FLAG/His-LDLR; non-specific control; log[antibody] ug/ml -2.46802
[9] = biological target: Purified PCSK9 carrying a C-terminal FLAG tag (UniProt Q8NBP7); experiment: AlphaScreen PCSK9-FLAG/His-LDLR; non-specific control; log[antibody] ug/ml 0.394711
[10] = biological target: Purified PCSK9 carrying a C-terminal FLAG tag (UniProt Q8NBP7); experiment: AlphaScreen PCSK9-FLAG/His-LDLR; non-specific control; log[antibody] ug/ml 0.871832
[11] = biological target: Purified PCSK9 carrying a C-terminal FLAG tag (UniProt Q8NBP7); experiment: AlphaScreen PCSK9-FLAG/His-LDLR; non-specific control; log[antibody] ug/ml 1.348954
[12] = biological target: Purified PCSK9 carrying a C-terminal FLAG tag (UniProt Q8NBP7); experiment: AlphaScreen PCSK9-FLAG/His-LDLR; non-specific control; log[antibody] ug/ml 1.826075
[13] = biological target: Purified PCSK9 carrying a C-terminal FLAG tag (UniProt Q8NBP7); experiment: AlphaScreen PCSK9-FLAG/His-LDLR; non-specific control; log[antibody] ug/ml -0.08241; remark: listed apart in the source
[14] = biological target: Purified PCSK9 carrying a C-terminal FLAG tag (UniProt Q8NBP7); experiment: AlphaScreen PCSK9-FLAG/His-LDLR; non-specific control; log[antibody] ug/ml -0.55953; remark: listed apart in the source
[15] = biological target: Purified PCSK9 carrying a C-terminal FLAG tag (UniProt Q8NBP7); experiment: AlphaScreen PCSK9-FLAG/His-LDLR; non-specific control; log[antibody] ug/ml -1.03665; remark: listed apart in the source
[16] = biological target: Purified PCSK9 carrying a C-terminal FLAG tag (UniProt Q8NBP7); experiment: AlphaScreen PCSK9-FLAG/His-LDLR; non-specific control; log[antibody] ug/ml -1.51377; remark: listed apart in the source
[17] = biological target: Purified PCSK9 carrying a C-terminal FLAG tag (UniProt Q8NBP7); experiment: AlphaScreen PCSK9-FLAG/His-LDLR; non-specific control; log[antibody] ug/ml -2.46802; remark: listed apart in the source
[18] = biological target: Purified PCSK9 carrying a C-terminal FLAG tag (UniProt Q8NBP7); experiment: AlphaScreen PCSK9-FLAG/His-LDLR; non-specific control; log[antibody] ug/ml -2.94514
[19] = biological target: Purified PCSK9 carrying a C-terminal FLAG tag (UniProt Q8NBP7); experiment: AlphaScreen PCSK9-FLAG/His-LDLR; non-specific control; log[antibody] ug/ml 0.394711; remark: listed apart in the source
[20] = biological target: Purified PCSK9 carrying a C-terminal FLAG tag (UniProt Q8NBP7); experiment: AlphaScreen PCSK9-FLAG/His-LDLR; non-specific control; log[antibody] ug/ml 0.871832; remark: listed apart in the source
[21] = biological target: Purified PCSK9 carrying a C-terminal FLAG tag (UniProt Q8NBP7); experiment: AlphaScreen PCSK9-FLAG/His-LDLR; non-specific control; log[antibody] ug/ml 1.348954; remark: listed apart in the source
[22] = biological target: Purified PCSK9 carrying a C-terminal FLAG tag (UniProt Q8NBP7); experiment: AlphaScreen PCSK9-FLAG/His-LDLR; non-specific control; log[antibody] ug/ml 1.826075; remark: listed apart in the source
[23] = biological target: T1, Purified PCSK9 carrying a C-terminal FLAG tag (UniProt Q8NBP7 31-692); experiment: AlphaScreen, inhibition of PCSK9-Flag/His-tagged LDL receptor interaction
T1 construct: also called PCSK9-FLAG; PCSK9-Flag; not shown: C-terminal FLAG tag
Procedure: (§1) This technique required that “donor” and “acceptor” beads be brought into proximity via protein—protein interaction, resulting in increased luminescence (Ullman et al., Proc. Nat. Acad. Sci. (1994) 91:5426-5430). […] About 2.5 μl of biotinylated anti-Flag-M2 antibody (1.8 μg/ml) was added and the mixture incubated for 1 hour. Afterward 5 μl of streptavidin donor bead and nickel chelate acceptor bead (1:1 mixture) was added and the assay incubated overnight. AlphaScreen signal (counts per second) was analyzed using an EnVision microplate reader (Perkin-Elmer). All data points were determined in triplicate. Assays were carried out at 23° C. in buffer containing 25 mM HEPES, 0.1 M NaCl, pH 7.4, 0.1% BSA. The inhibition assays were determined similarly with slight adjustments to assay volumes and protein concentrations.

[24] = biological target: T1, Purified PCSK9 carrying a C-terminal …; experiment: AlphaScreen, inhibition of PCSK9-Flag/His-tagged LDL receptor interaction, relative to no antibody
Procedure: as §1

mouse liver LDL receptor (C57BL/6j mice) (mouse), sequence (P35951 22-862): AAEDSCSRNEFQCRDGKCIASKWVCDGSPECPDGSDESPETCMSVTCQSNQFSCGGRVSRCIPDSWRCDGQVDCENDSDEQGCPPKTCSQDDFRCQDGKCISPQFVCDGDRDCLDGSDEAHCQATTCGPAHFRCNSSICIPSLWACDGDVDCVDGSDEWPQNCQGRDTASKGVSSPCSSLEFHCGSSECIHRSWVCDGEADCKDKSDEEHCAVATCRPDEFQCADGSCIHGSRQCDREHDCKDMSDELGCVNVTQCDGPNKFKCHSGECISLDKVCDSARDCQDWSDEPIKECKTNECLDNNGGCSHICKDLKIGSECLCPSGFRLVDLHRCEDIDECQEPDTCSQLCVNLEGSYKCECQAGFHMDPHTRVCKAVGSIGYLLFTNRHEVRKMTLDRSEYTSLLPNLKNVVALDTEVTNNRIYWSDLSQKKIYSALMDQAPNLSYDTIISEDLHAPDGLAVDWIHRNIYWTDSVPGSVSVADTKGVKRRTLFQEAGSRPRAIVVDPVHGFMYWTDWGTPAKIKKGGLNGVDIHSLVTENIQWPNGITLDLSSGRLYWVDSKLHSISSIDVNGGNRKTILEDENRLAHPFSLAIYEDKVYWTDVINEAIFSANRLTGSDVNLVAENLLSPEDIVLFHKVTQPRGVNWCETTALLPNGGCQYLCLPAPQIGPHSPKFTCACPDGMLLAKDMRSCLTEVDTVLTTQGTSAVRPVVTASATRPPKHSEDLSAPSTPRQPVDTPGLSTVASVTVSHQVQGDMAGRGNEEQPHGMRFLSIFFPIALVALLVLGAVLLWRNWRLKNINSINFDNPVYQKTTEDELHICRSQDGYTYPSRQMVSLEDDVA
Purified PCSK9 carrying a C-terminal FLAG tag (UniProt Q8NBP7), sequence (Q8NBP7 31-692 limits assumed): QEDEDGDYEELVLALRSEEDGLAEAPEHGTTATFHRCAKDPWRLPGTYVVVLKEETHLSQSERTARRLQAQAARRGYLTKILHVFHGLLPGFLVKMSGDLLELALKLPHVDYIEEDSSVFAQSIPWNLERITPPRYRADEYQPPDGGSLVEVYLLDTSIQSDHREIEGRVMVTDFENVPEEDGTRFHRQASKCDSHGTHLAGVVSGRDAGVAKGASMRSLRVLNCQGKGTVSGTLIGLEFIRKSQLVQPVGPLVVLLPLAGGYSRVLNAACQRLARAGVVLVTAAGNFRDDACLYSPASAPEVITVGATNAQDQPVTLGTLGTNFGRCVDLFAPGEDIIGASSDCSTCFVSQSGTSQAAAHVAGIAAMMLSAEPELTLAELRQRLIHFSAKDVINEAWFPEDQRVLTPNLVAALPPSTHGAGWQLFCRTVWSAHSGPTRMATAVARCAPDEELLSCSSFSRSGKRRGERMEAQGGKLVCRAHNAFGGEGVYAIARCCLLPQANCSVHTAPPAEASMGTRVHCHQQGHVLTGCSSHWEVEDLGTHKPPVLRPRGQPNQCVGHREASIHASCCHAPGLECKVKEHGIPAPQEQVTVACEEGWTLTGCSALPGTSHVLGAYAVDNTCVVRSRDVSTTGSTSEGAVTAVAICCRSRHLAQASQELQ
T1 sequence (Q8NBP7 31-692 limits assumed): as above

## human PCSK9 Protein (injected intravenously into mice) (from UniProt Q8NBP7 31-692)
[1]
  Mean liver LDLR/GAPDH, mice given Saline and PCSK9 (western blot, lightest exposure): 0.081 AU

## non-specific IgG control (antibody)
[2]
  AlphaScreen mean counts: 135000 counts
[3]
  AlphaScreen mean counts: 80700 counts
[4]
  AlphaScreen mean counts: 140000 counts
[5]
  AlphaScreen mean counts: 139000 counts
[6]
  AlphaScreen mean counts: 127000 counts
[7]
  AlphaScreen mean counts: 134000 counts
[8]
  AlphaScreen mean counts: 140000 counts
[9]
  AlphaScreen mean counts: 136000 counts
[10]
  AlphaScreen mean counts: 140000 counts
[11]
  AlphaScreen mean counts: 135000 counts
[12]
  AlphaScreen mean counts: 114000 counts
[13]
  AlphaScreen mean counts: 82800 counts
[14]
  AlphaScreen mean counts: 88100 counts
[15]
  AlphaScreen mean counts: 84400 counts
[16]
  AlphaScreen mean counts: 83100 counts
[17]
  AlphaScreen mean counts: 78200 counts
[18]
  AlphaScreen mean counts: 82100 counts
[19]
  AlphaScreen mean counts: 79600 counts
[20]
  AlphaScreen mean counts: 79600 counts
[21]
  AlphaScreen mean counts: 74400 counts
[22]
  AlphaScreen mean counts: 61900 counts

## human PCSK9 Protein (injected intravenously into mice) (from UniProt Q8NBP7 31-692) (enzyme)
[1]
  % Change of mean liver LDLR/GAPDH against saline only, mice given Saline and PCSK9 (darker exposure): -78.8%
  % Change of mean liver LDLR/GAPDH against saline only, mice given Saline and PCSK9 (lightest exposure): -82%
  Mean liver LDLR/GAPDH, mice given Saline and PCSK9 (western blot, darker exposure of LDLR panel): 0.123 AU

B1: 29C10 anti-PCSK9 antibody (IgG2a) (antibody, V domains shown)
VH: EVLLQQSVAELVRPGASVRLSCTASGFNIKDTYIHWVRQRPEQGLEWFGWIDPANGYTKYAPNFQGKATLTTDTSSNTAYLHLSSLTSEDSAIYYCARGYYRYYSLDYWGQGTSVTVSS
VL: DIQMTQTTSSLSASLGDRVTISCRASQDISNYLNWYQQKPDGTVKLLIYYSSRLHSGVPSRFSGRGSGTDYSLTISTLEQEDIATYFCQQGKTLPLTFGAGTKLELKR
[23]
  IC50: 13 nM
[24]
  % inhibition at 450 nM of antibody: 71%

B2: 75B9 anti-PCSK9 antibody (IgG2a) (antibody, V domains shown)
VH: EVQLQQSGADLVKPGASVKLSCTASGFNIKDTYIHWVKQRPEQGLEWIGRIDPANGHTEYDPKFQGRATLTTDTSSNTAYLQLFSLTSEDSAVYFCARSYYGSIFAYWGQGTLVTVSA
VL: QIVLTQSPAIMSASPGEKVTISCSASSSVSYLFWYQQKPGSSPKPWIFRTSYLASGVPARFSGSGSGTSFSLTISSMEAEDAATYYCHQYHTYPPTFGGGTKLEIKR
[23]
  IC50: 0.5 nM
[24]
  % inhibition at 450 nM of antibody: 100%

B3: 77D10 anti-PCSK9 antibody (IgG2b) (antibody, V domains shown)
VH: EVQLQQSGAELVRSGASVKLSCTTSGFNIKDYYIHWVKQRPEQGLEWIGWIDPENGDTEYAPKFQGKATMTADTSSNTAYLQLSSLTSADTAVYYCNAYYRYDDGTWFPYWGQGTLVTVSA
VL: DIQLTQSPASLSASVGETVTITCRASGNIHSYLAWYQQKQGKSPQFLVDNAKTLPDGVPSRFSVSGSGTQYSLKINSLQPEDFGTYYCQHFWNTPWTFGGGTKLEIKR
[23]
  IC50: 38 nM
[24]
  % inhibition at 450 nM of antibody: 62%

B4: 11B5 anti-PCSK9 antibody (IgG2a) (antibody, V domains shown)
VH: EVQLQQSGAELVKPGASVTLSCTASGFNIKDTYMHWVNQRPEQGLVWIGRIDPANGHTEYDPKFQDKATITTDTSSNTAYLHLSSLTSGDTAVYYCARSYFGSIFAYWGQGTLVTVSA
VL: B2 VL with F33Y, T50S, Y52H, L53R, F70Y, H91Q, T92S
[23]
  IC50: 0.4 nM
[24]
  % inhibition at 450 nM of antibody: 100%
